Test results from the supplement of paper PMC10724198.
± gives the standard deviation of the averaged measurements.

Test system: Saccharomyces cerevisiae
Assay: protein stability index of tFT-peptide fusion (C-terminal peptide) (PSI (0-1 scale)); higher = more stable (slower turnover)
Settings: temperature: 30 C
Method: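 MPS profiling in S. cerevisiae of the yeast C-terminome library: the last 12 aa of each annotated ORF are fused to the C-terminus of a sfGFP-mCherry timer, after a GGGS linker. Cells are FACS-sorted into 8 mCherry/sfGFP bins and deep-sequenced. PSI runs from 0 (unstable) to 1 (stable); wild type and das1Δ backgrounds, two technical replicates each.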

[1] = genetic background: das1 deletion

Row | Sequence | protein stability index [1] | protein stability index (genetic background: wild type)
1 | HNGKNKNRNSKK [MPP6 C-terminal 12 aa] | 0.691 ± 0.03 | 0.669 ± 0.016
2 | EHKLGNTKYFED [ARP5 C-terminal 12 aa] | 0.693 ± 0.01 | 0.687 ± 0.023
3 | YCLAGVLCVFCV [YPR064W C-terminal 12 aa] | 0.431 ± 0.013 | 0.433 ± 0.0085
4 | VLSNLAVKALQN [PRM3 C-terminal 12 aa] | 0.68 ± 0.018 | 0.646 ± 0.023
5 | NVIRVWQVMTAN [ASC1 C-terminal 12 aa] | 0.576 ± 0.0091 | 0.272 ± 0.016
6 | VRKVAQWLQQLT [FSH2 C-terminal 12 aa] | 0.6838 ± 0.0012 | 0.5807 ± 0.0037
7 | GKRIIGMLHLDS [PUF4 C-terminal 12 aa] | 0.685 ± 0.037 | 0.699 ± 0.01
8 | RKEDDKRDTQEK [SOF1 C-terminal 12 aa] | 0.713 ± 0.024 | 0.67 ± 0.019
9 | NYEITPYENVHV [TOS2 C-terminal 12 aa] | 0.682 ± 0.026 | 0.7131 ± 0.0041
10 | DDDNEDVEMSDA [NOC2 C-terminal 12 aa] | 0.66818 ± 0.00066 | 0.693 ± 0.057
11 | EKWASQFGSSGS [SAP1 C-terminal 12 aa] | 0.702 ± 0.024 | 0.685 ± 0.014
12 | ALAFSKIPSVFL [YMR153C-A C-terminal 12 aa] | 0.722 ± 0.035 | 0.687 ± 0.0091
13 | KAPKSPEVIEID [UFD1 C-terminal 12 aa] | 0.6978 ± 0.0035 | 0.684 ± 0.027
14 | MFGKLGRYLYSH [NSG2 C-terminal 12 aa] | 0.75552 ± 0.00052 | 0.211 ± 0.04
15 | VTGFKDEVLETV [RPS1A C-terminal 12 aa] | 0.7042 ± 0.001 | 0.682 ± 0.032
16 | GALERKLHIDEN [MAM1 C-terminal 12 aa] | 0.6947 ± 0.0045 | 0.692 ± 0.046
17 | KPEFVDIINSRN [TPI1 C-terminal 12 aa] | 0.7145 ± 0.0052 | 0.691 ± 0.026
18 | RYVIFQSCGLIL [MRX8 C-terminal 12 aa] | 0.657 ± 0.031 | 0.683 ± 0.012
19 | KLRNSNNTRAED [AVO2 C-terminal 12 aa] | 0.67 ± 0.0067 | 0.672 ± 0.011
20 | LQKFYLQVSTIS [YFR054C C-terminal 12 aa] | 0.456 ± 0.0082 | 0.456 ± 0.0082
21 | KRYTVKKALAKA [RPL14A C-terminal 12 aa] | 0.6258 ± 0.0061 | 0.627 ± 0.013

Row | Sequence | protein stability index [1] | protein stability index (genetic background: wild type)
22 | APRKEILACSDL [YOR392W C-terminal 12 aa] | 0.718 ± 0.029 | 0.665 ± 0.04
23 | KLDLPNVFHKKG [CHS2 C-terminal 12 aa] | 0.713 ± 0.027 | 0.706 ± 0.037
24 | ATSITSLGVKRA [AUR1 C-terminal 12 aa] | 0.702 ± 0.01 | 0.688 ± 0.026
25 | SQFVNDPFWANI [HIS2 C-terminal 12 aa] | 0.757 ± 0.031 | 0.756 ± 0.04
26 | GVFEADGLEAVH [YLR235C C-terminal 12 aa] | 0.717 ± 0.029 | 0.7688 ± 0.0057
27 | MERLQKGWSLAK [MDY2 C-terminal 12 aa] | 0.71 ± 0.043 | 0.684 ± 0.02
28 | QMQQMAKQFGMG [SRP54 C-terminal 12 aa] | 0.6863 ± 0.0024 | 0.68513 ± 0.00031
29 | TANKAGNKFQLS [LDO16 C-terminal 12 aa] | 0.707 ± 0.0029 | 0.675 ± 0.019
30 | STTMNFNYQTKV [SDD1 C-terminal 12 aa] | 0.696 ± 0.011 | 0.363 ± 0.0082
31 | NDTIFKLKVFKL [ILS1 C-terminal 12 aa] | 0.7346 ± 0.001 | 0.759 ± 0.099
32 | NRAKGKVVVKMK [YIM1 C-terminal 12 aa] | 0.69 ± 0.022 | 0.6976 ± 0.0037
33 | RSRKWKRRLFHL [PEX32 C-terminal 12 aa] | 0.825 ± 0.038 | 0.6 ± 0.12
34 | MVGVLFFWVWIT [BET1 C-terminal 12 aa] | 0.201 ± 0.0064 | 0.123 ± 0.018
35 | LRYYVSKLINFK [YNL324W C-terminal 12 aa] | 0.70435 ± 0.00064 | 0.6889 ± 0.00073
36 | LSVEEDRDVQMT [APC5 C-terminal 12 aa] | 0.684 ± 0.013 | 0.729 ± 0.054
37 | RNVYSTKTRCIE [TDA10 C-terminal 12 aa] | 0.681 ± 0.017 | 0.699 ± 0.023
38 | STKATPTDLSKL [MLS1 C-terminal 12 aa] | 0.7565 ± 0.0027 | 0.8075 ± 0.0051
39 | TDGSKEDVDALP [ZNF1 C-terminal 12 aa] | 0.688 ± 0.02 | 0.716 ± 0.039
40 | KKNGYIYFYTRC [UBP14 C-terminal 12 aa] | 0.69 ± 0.0087 | 0.6625 ± 0.0026
41 | QQGGAGADQKTE [EMC10 C-terminal 12 aa] | 0.6815 ± 0.0066 | 0.656 ± 0.028
42 | KGHVHSPRHNND [YOR379C C-terminal 12 aa] | 0.7103 ± 0.0065 | 0.713 ± 0.035

Row | Sequence | protein stability index [1] | protein stability index (genetic background: wild type)
43 | TEISRHFIVVFV [YHR182C-A C-terminal 12 aa] | 0.306 ± 0.0088 | 0.351 ± 0.028
44 | VVNNRIFSGISK [RSM26 C-terminal 12 aa] | 0.713 ± 0.027 | 0.698 ± 0.018
45 | GYKPIILYHVIH [YDL025W-A C-terminal 12 aa] | 0.691 ± 0.024 | 0.598 ± 0.025
46 | REAKNLPKPSFL [EDC1 C-terminal 12 aa] | 0.70153 ± 0.00024 | 0.698 ± 0.0091
47 | PDDQIHSILLSL [MET13 C-terminal 12 aa] | 0.708 ± 0.019 | 0.714 ± 0.018
48 | NEDDYLAVKYVL [FES1 C-terminal 12 aa] | 0.687 ± 0.018 | 0.696 ± 0.044
49 | NIKSSTLPGLSI [PFS2 C-terminal 12 aa] | 0.694 ± 0.02 | 0.664 ± 0.029
50 | FANKSSSGGDEV [YIL089W C-terminal 12 aa] | 0.6849 ± 0.0047 | 0.672 ± 0.028
51 | RQDNNHNGSSNG [MET32 C-terminal 12 aa] | 0.6936 ± 0.0016 | 0.706 ± 0.025
52 | ELKKIILESSMK [EXO5 C-terminal 12 aa] | 0.698 ± 0.059 | 0.68 ± 0.011
53 | SSVVSIPLREIL [YNR048W C-terminal 12 aa] | 0.712 ± 0.016 | 0.711 ± 0.07
54 | LKHFIKVFSSKL [ARR1 C-terminal 12 aa] | 0.825 ± 0.013 | 0.89 ± 0.024
55 | FTFIIIQLFPAL [USE1 C-terminal 12 aa] | 0.351 ± 0.016 | 0.385 ± 0.015
56 | EPLKESIFNQLK [MRPL23 C-terminal 12 aa] | 0.694 ± 0.013 | 0.678 ± 0.059
57 | KVIFKDRPLPIM [CTF8 C-terminal 12 aa] | 0.643 ± 0.032 | 0.611 ± 0.012
58 | IEKSKSDRRKLL [YHR022C C-terminal 12 aa] | 0.728 ± 0.063 | 0.2695 ± 0.0021
59 | APHVLNDLLLKF [PGA1 C-terminal 12 aa] | 0.7108 ± 0.0037 | 0.666 ± 0.017
60 | QEGGDNTKIKQN [RNP1 C-terminal 12 aa] | 0.731 ± 0.023 | 0.638 ± 0.024
61 | NENKKANGNNCC [YPT31 C-terminal 12 aa] | 0.705 ± 0.017 | 0.652 ± 0.036
62 | EVPVNTADRGRL [PMU1 C-terminal 12 aa] | 0.701 ± 0.021 | 0.76 ± 0.071
63 | STITSMNPDTTK [VHS2 C-terminal 12 aa] | 0.711 ± 0.031 | 0.669 ± 0.04

Row | Sequence | protein stability index [1] | protein stability index (genetic background: wild type)
64 | MNSAMNVQPTGF [CHC1 C-terminal 12 aa] | 0.6951 ± 0.0016 | 0.662 ± 0.033
65 | QNLLSAYRMNHK [AVO1 C-terminal 12 aa] | 0.70387 ± 0.00067 | 0.64 ± 0.021
66 | QIAFAWQNKPRL [PXP1 C-terminal 12 aa] | 0.815 ± 0.029 | 0.793 ± 0.045
67 | WAIESVDENWRF [TOP1 C-terminal 12 aa] | 0.746 ± 0.032 | 0.773 ± 0.04
68 | ETNFWTAAMEYE [THI22 C-terminal 12 aa] | 0.717 ± 0.011 | 0.701 ± 0.014
69 | EDDEDGSGVEYD [RTT106 C-terminal 12 aa] | 0.694 ± 0.009 | 0.7 ± 0.062
70 | DVKLLPPPKKRN [NUC1 C-terminal 12 aa] | 0.67982 ± 0.00038 | 0.6883 ± 0.0014
71 | AKAGSTPKFRTE [YNL050C C-terminal 12 aa] | 0.6897 ± 0.0035 | 0.6555 ± 0.0053
72 | ISIALEGHTLFL [PDE1 C-terminal 12 aa] | 0.715 ± 0.02 | 0.70608 ± 0.00038
73 | FWTINDDYGFLT [YLR278C C-terminal 12 aa] | 0.757 ± 0.029 | 0.77104 ± 0.00063
74 | DFNDSSNLKKTR [CLN3 C-terminal 12 aa] | 0.7398 ± 0.0057 | 0.693 ± 0.039
75 | YQGVIYGIDGDQ [POP2 C-terminal 12 aa] | 0.699 ± 0.012 | 0.689 ± 0.041
76 | YLGAKTGSLIDF [KAR5 C-terminal 12 aa] | 0.702 ± 0.015 | 0.721 ± 0.026
77 | SRIIIKAARGII [YOR082C C-terminal 12 aa] | 0.704 ± 0.042 | 0.678 ± 0.019
78 | NDAQKRAIDENF [SIS1 C-terminal 12 aa] | 0.687 ± 0.016 | 0.683 ± 0.0076
79 | NPAARLDEDLYE [FRS2 C-terminal 12 aa] | 0.662 ± 0.053 | 0.707 ± 0.022
80 | DDYAQYLDQDSD [MAK21 C-terminal 12 aa] | 0.7147 ± 0.004 | 0.671 ± 0.011
81 | VDDYVAAGFQTL [SUT2 C-terminal 12 aa] | 0.7372 ± 0.0021 | 0.714 ± 0.018
82 | SKILFLCQINIS [YNR042W C-terminal 12 aa] | 0.312 ± 0.03 | 0.313 ± 0.015
